Test results: US20260166131

Target: custom-expressed human TDP-43 (Nanjing GenScript Biotechnology Co., Ltd., C134WHE160-2/P5HF001), Q13148
Sequence (Q13148 whole entry): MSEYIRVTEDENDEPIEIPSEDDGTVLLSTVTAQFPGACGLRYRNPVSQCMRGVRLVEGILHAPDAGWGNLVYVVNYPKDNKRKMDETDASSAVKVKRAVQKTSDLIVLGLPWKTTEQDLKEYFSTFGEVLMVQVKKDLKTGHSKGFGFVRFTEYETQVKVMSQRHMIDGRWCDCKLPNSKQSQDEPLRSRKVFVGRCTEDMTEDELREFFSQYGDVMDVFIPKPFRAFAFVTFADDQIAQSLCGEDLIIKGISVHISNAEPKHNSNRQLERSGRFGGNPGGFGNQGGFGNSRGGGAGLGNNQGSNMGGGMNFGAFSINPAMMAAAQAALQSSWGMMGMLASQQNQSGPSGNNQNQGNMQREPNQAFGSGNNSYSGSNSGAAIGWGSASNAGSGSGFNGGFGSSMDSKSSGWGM

B1: human plasminogen purified from human donor plasma (protein)
chain: KVYLSECKTGNGKNYRGTMSKTKNGITCQKWSSTSPHRPRFSPATHPSEGLEENYCRNPDNDPQGPWCYTTDPEKRYDYCDILECEEECMHCSGENYDGKISKTMSGLECQAWDSQSPHAHGYIPSKFPNKNLKKNYCRNPDRELRPWCFTTDPNKRWELCDIPRCTTPPPSSGPTYQCLKGTGENYRGNVAVTVSGHTCQHWSAQTPHTHNRTPENFPCKNLDENYCRNPDGKRAPWCHTTNSQVRWEYCKIPSCDSSPVSTEQLAPTAPPELTPVVQDCYHGDGQSYRGTSSTTTTGKKCQSWSSMTPHRHQKTPENYPNAGLTMNYCRNPDADKGPWCFTTDPSVRWEYCNLKKCSGTEASVVAPPPVVLLPDVETPSEEDCMFGNGKGYRGKRATTVTGTPCQDWAAQEPHRHSIFTPETNPRAGLEKNYCRNPDGDVGGPWCYTTNPRKLYDYCDVPQCAAPSFDCGKPQVEPKKCPGRVVGGCVAHPHSWPWQVSLRTRFGMHFCGGTLISPEWVLTAAHCLEKSPRPSSYKVILGAHQEVNLEPHVQEIEVSRLFLEPTRKDIALLKLSSPAVITDKVIPACLPSPNYVVADRTECFITGWGETQGTFGAGLLKEAQLPVIENKVCNRYEFLNGRVQSTELCAGHLAGGTDSCQGDSGGPLVCFEKDKYILQGVTSWGLGCARPNKPGVYVRVSRFVTWIEGVMRNN
  Western blot and band density of TDP-43 after 3 h at 37 C with plasminogen in normal mouse brain homogenate: the amounts of TDP-43 monomer, HMW and LMW in the plasminogen group are significantly lower than those in the vehicle control group
